From patent US12324447B2, “Animal feed compositions and uses thereof” (priority 2015, dated 2025)
“Also recorded” adds a separate entry of the source. Like-named read-outs stand apart in the source and are kept apart here. Marks after values point to notes of the source that are not given here.

Key:
[1] = tested on: M. lysodeikticus substrate; assay: Temperature stability: residual activity by OD drop after heat treatment; details: for Residual activity (%): OD drop pH 6
[2] = In vivo piglet trial (growth performance); set-up: species or system weaned piglets (Large-White x Redon); details: for ADFI (g/d), Mean / ADWG (g/d), Mean / FCR, Mean: SEQ ID NO: 257 50 mg/kg feed, VevoVital 5000 mg/kg feed; for ADFI, % relative NC / ADWG, % relative NC / FCR, % relative NC: relative to negative control
[3] = tested on: Clostridium perfringens DSM756; assay type: cell-based; details: for Diameter of clearing zone (mm): lysozymes 100 μg/ml, Bacitracin zinc salt 50 μg/ml
[4] = tested on: Micrococcus lysodeikticus ATTC No. 4698; assay: Lysozyme activity turbidity assay (optical density drop at 540 nm)
[5] = tested on: Exiguobacterium undea (DSM14481); assay: as above; assay type: biochemical, Exiguobacterium undae
[6] = Thermostability by Differential Scanning Calorimetry (DSC); assay type: physicochemical; details: 50 mM Na-acetate, DSC 200 K/hour
[7] = In vivo broiler trial (growth performance)
[8] = Finisher (d 36-42), SEQ ID NO: 257 25 mg/kg feed, Avilamycin 10 mg/kg
[9] = Finisher (d 36-42), relative to unsupplemented control
[10] = Grower (d 22-36), SEQ ID NO: 257 25 mg/kg feed, Avilamycin 10 mg/kg
[11] = Grower (d 22-36), relative to unsupplemented control
[12] = Starter (d 1-22), SEQ ID NO: 257 25 mg/kg feed, Avilamycin 10 mg/kg
[13] = Starter (d 1-22), relative to unsupplemented control
[14] = Whole period (day 1 to day 42), SEQ ID NO: 257 25 mg/kg feed, Avilamycin 10 mg/kg
[15] = Whole period, relative to unsupplemented control

B1: SEQ ID NO: 257: mature GH24 lysozyme from Trichophaea saccata, comprising a GH24 domain and a lysozyme enhancing domain (LED) (protein, listed as Trichophaea saccata)
chain: YPVKTDLHCRSSPSTSASIVRTYSSGTEVQIQCQTTGTSVQGSNVWDKTQHGCYVADYYVKTGHSGIFTTKCGSSSGGGSCKPPPINAATVALIKEFEGFVPKPAPDPIGLPTVGYGHLCKTKGCKEVPYSFPLTQETATKLLQSDIKTFTSCVSNYVKDSVKLNDNQYGALASWAFNVGCGNVQTSSLIKRLNAGENPNTVAAQELPKWKYAGGKVMPGLVRRRNAEVALFKKPSSVQAHPPKC
modifications: mat_peptide (1)..(245)
[1]; at temperatures as high as 99° C.
  Time for which the lysozyme is stable: at least 90 seconds
[1]; heat treatment 30 sec at 60 °C
  Residual activity (%): 93%
[1]; heat treatment 30 sec at 65 °C
  Residual activity (%): 99%
[1]; heat treatment 30 sec at 70 °C
  Residual activity (%): 94%
[1]; heat treatment 30 sec at 75 °C
  Residual activity (%): 101%
[1]; heat treatment 30 sec at 80 °C
  Residual activity (%): 94%
[1]; heat treatment 30 sec at 85 °C
  Residual activity (%): 98%
[1]; heat treatment 30 sec at 90 °C
  Residual activity (%): 94%
[1]; heat treatment 30 sec at 95 °C
  Residual activity (%): 98%
[1]; heat treatment 30 sec at 99 °C
  Residual activity (%): 93%
[1]; heat treatment 60 sec at 60 °C
  Residual activity (%): 99%
[1]; heat treatment 60 sec at 65 °C
  Residual activity (%): 97%
[1]; heat treatment 60 sec at 70 °C
  Residual activity (%): 93%
[1]; heat treatment 60 sec at 75 °C
  Residual activity (%): 96%
[1]; heat treatment 60 sec at 80 °C
  Residual activity (%): 98%
[1]; heat treatment 60 sec at 85 °C
  Residual activity (%): 94%
[1]; heat treatment 60 sec at 90 °C
  Residual activity (%): 99%
[1]; heat treatment 60 sec at 95 °C
  Residual activity (%): 94%
[1]; heat treatment 60 sec at 99 °C
  Residual activity (%): 97%
[1]; heat treatment 90 sec at 60 °C
  Residual activity (%): 96%
[1]; heat treatment 90 sec at 65 °C
  Residual activity (%): 99%
[1]; heat treatment 90 sec at 70 °C
  Residual activity (%): 98%
[1]; heat treatment 90 sec at 75 °C
  Residual activity (%): 98%
[1]; heat treatment 90 sec at 80 °C
  Residual activity (%): 97%
[1]; heat treatment 90 sec at 85 °C
  Residual activity (%): 100%
[1]; heat treatment 90 sec at 90 °C
  Residual activity (%): 97%
[1]; heat treatment 90 sec at 95 °C
  Residual activity (%): 102%
[1]; heat treatment 90 sec at 99 °C
  Residual activity (%): 89%
[2]; day 0-14
  ADFI (g/d), Mean: 333 g/day
  ADWG (g/d), Mean: 265 g/day
  FCR, Mean: 1.272^b
  ADFI, % relative NC: 92.5%
  ADWG, % relative NC: 91.4%
  FCR, % relative NC: 102.6%
[2]; day 0-42
  ADFI (g/d), Mean: 740^b g/d
  ADWG (g/d), Mean: 538 g/day
  FCR, Mean: 1.379^a
  ADFI, % relative NC: 100.8%
  ADWG, % relative NC: 107.8%
  FCR, % relative NC: 92.9%
[2]; day 14-42
  ADFI (g/d), Mean: 944^c g/d
  ADWG (g/d), Mean: 674 g/day
  FCR, Mean: 1.404^a
  ADFI, % relative NC: 101.5%
  ADWG, % relative NC: 111.8%
  FCR, % relative NC: 90.9%
[2]; overall period (day 0 to day 42), lysozyme 50 mg/kg, VevoVital 5000 mg/kg
  Improvement on FCR compared to the negative control: 7.1%
[2]; starter period (days 14-42)
  Improvement of ADWG compared to NC: 11.8%
[2]; starter period, from day 15 to day 42, SEQ ID NO: 257 50 mg/kg, VevoVital (PC)
  Improvement to FCR compared to NC: 9.1%
[2]; whole period (day 0 to day 42)
  Improvement of ADWG compared to NC: 7.8%
[3]; Experiment 1, 1/2 MHB pH 6
  Diameter of clearing zone (mm): 11 mm
[3]; Experiment 1, 1/10 MHB pH 7
  Diameter of clearing zone (mm): 9 mm
[3]; Experiment 2, 1/10 MHB pH 7
  Diameter of clearing zone (mm): 8 mm
[3]; RDA, tested conditions (1/10 MHB pH 7 and 1/2 MHB pH 6)
  Antimicrobial activity against Clostridium perfringens (in words): significant activity; also recorded: showed antimicrobial activity
[4]; OD drop assay
  Lysozyme activity against Micrococcus lysodeikticus (in words): good activity
[4]; assay pH 6
  Lysozyme Activity against Micrococcus lysodeikticus as measured by Optical Density Drop: ++
[5]; OD drop assay
  Lysozyme activity against Exiguobacterium undea (in words): good activity
[5]; assay pH 6
  Lysozyme Activity against Exiguobacterium undae as measured by Optical Density Drop: ++
[6]; pH 4.5
  Denaturation Temperature Td (° C.): 70.0 °C
[6]; pH 5.5
  Denaturation Temperature Td (° C.): 70.8 °C
[6]; pH 6.5
  Denaturation Temperature Td (° C.): 69.7 °C
[7]; [8]
  FCR: 1.919
  Feed intake (g/b): 1524 g/b
  Weight gain (g/b): 800 g/b
[7]; [9]
  FCR, Relative to C (%): 97.9%
  Feed intake, Relative to C (%): 102.5%
  Weight gain, Relative to C (%): 105.1%
[7]; [10]
  FCR: 1.714
  Feed intake (g/b): 2336 g/b
  Weight gain (g/b): 1364 g/b
[7]; [11]
  FCR, Relative to C (%): 99.5%
  Feed intake, Relative to C (%): 102.2%
  Weight gain, Relative to C (%): 102.7%
[7]; [12]
  FCR: 1.414
  Feed intake (g/b): 1603 g/b
  Weight gain (g/b): 1133 g/b
[7]; [13]
  FCR, Relative to C (%): 98.1%
  Feed intake, Relative to C (%): 101.6%
  Weight gain, Relative to C (%): 103.4%
[7]; [14]
  EPEF: 425
  FCR: 1.657
  Feed intake (g/b): 5450 g/b
  Motality: 10.0
  Weight gain (g/b): 3290 g/b
[7]; [15]
  EPEF, Relative to C (%): 101.7%
  FCR, Relative to C (%): 98.6%
  Feed intake, Relative to C (%): 101.9%
  Weight gain, Relative to C (%): 103.3%
[7]; whole period, GH24 lysozyme 25 mg/kg
  EPEF improvement compared to NC diet: 1.7%
[7]; whole period, GH24 lysozyme 25 mg/kg, Avilamycin 10 mg/kg
  FCR improvement compared to NC diet: 1.4%
